The results in this text go back to publication PMC3776929 (Cell, 2013).

To fix the notation:
B1: Swc5 (natural protein, S. cerevisiae, UniProt P38326 1-303, looked up)
chain: MPEVETKIIPNEKEDEDEDGYIEEEDEDFQPEKDKLGGGSDDSDASDGGDDYDDGVNRDKGRNKVDYSRIESESGGLIKTRRARQAEEEYAKTHKYESLTVESIPAKVNSIWEELQEASKNRLLSSSGKVGSVLDGSKEARSTTAAQQEDKILIERNYKFAGETVHEKKWVSRSSAEGQEYLNSLKFKQQAPAAPVQLEKAVRTKSNESRQHLRRPLKRPPLLEQIISGGLRPKLTTLEKSQLDWASYVDRAGLNDELVLHNKDGFLARQEFLQRVGSAEDERYKELRRQQLAQQLQQDSEAS
notes: Swc5, subunit of SWR1, S. cerevisiae; also called small subunit Swc5; source: endogenous, S. cerevisiae; co-purified in the SWR1 complex

The target in assay [1] is T1, Act1 (S. cerevisiae, UniProt P60010 1-375).
T1 construct: Act1 (actin), N-Module subunit of SWR1, S. cerevisiae; source: endogenous, S. cerevisiae; co-purified in the SWR1 complex
In words: cross-linking; ∼45 μg affinity-purified SWR1 cross-linked with 1 mM DSS d0/d12 in SWR1 buffer, 37°C, 30 min; trypsin, SEC enrichment, LC-MS/MS, xQuest (CX-MS). The conditions noted are these: both partners purified.

For assay [2], the target named is T2, Swr1, FLAG-tagged catalytic subunit of the SWR1 complex (S. cerevisiae, UniProt Q05471 1-1514).
T2 construct: Swr1, catalytic ATPase subunit of the SWR1 complex, S. cerevisiae; HSA domain in the N-terminal half, split ATPase domain with long insert in the C-terminal half; also called Swr1-3xFLAG; Swr1 ATPase
T2 sequence (Q05471 whole entry, the tested form may be a part, one chain of several): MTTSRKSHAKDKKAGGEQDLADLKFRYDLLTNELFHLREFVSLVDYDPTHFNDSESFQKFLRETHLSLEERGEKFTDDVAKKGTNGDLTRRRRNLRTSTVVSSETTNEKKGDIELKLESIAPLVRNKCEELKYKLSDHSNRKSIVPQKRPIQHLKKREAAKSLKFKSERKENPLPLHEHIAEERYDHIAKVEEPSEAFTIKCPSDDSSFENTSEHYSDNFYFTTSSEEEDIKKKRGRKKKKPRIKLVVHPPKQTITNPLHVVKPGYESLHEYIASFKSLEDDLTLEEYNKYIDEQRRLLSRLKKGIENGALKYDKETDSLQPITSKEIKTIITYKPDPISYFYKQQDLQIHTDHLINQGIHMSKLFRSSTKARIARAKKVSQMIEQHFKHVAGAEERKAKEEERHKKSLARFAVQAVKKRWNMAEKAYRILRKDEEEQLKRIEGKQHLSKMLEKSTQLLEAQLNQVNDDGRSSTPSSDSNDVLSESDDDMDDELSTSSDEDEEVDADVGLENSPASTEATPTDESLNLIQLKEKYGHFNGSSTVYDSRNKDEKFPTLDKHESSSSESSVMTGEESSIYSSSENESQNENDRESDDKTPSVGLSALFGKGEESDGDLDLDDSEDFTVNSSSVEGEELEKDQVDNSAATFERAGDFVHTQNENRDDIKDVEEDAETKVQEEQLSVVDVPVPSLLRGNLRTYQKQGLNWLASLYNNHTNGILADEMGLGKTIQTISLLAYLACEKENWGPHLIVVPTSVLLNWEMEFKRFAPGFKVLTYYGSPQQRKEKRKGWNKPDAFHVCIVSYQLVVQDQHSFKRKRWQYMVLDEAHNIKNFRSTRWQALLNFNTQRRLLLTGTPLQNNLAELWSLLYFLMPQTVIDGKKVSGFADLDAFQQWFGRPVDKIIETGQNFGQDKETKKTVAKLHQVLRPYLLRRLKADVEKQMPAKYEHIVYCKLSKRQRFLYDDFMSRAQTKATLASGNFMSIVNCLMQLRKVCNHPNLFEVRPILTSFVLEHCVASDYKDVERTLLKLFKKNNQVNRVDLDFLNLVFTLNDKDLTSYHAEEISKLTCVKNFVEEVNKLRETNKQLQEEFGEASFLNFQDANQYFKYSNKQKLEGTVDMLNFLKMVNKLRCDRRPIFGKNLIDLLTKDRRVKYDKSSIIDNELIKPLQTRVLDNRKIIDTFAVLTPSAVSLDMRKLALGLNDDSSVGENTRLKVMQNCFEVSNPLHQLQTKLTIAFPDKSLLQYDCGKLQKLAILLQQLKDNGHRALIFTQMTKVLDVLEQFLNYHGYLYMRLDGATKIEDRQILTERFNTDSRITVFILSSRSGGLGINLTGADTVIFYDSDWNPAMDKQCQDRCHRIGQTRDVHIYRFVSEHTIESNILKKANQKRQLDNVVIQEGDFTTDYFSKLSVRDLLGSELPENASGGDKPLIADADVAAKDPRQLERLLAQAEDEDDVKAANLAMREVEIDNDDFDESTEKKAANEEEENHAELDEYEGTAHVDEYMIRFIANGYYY
In words: co-IP; FLAG affinity purification of SWR1 (or a subcomplex) from S. cerevisiae, eluted with 3× FLAG peptide; SDS-PAGE (4%-12% Bis-Tris), Coomassie or SYPRO Orange stain; band intensities normalised for protein size for the stoichiometry. The conditions noted are these: partners not purified.

In assay [3] the target is B1. Briefly: cross-linking; ∼45 μg affinity-purified SWR1 cross-linked with 1 mM DSS d0/d12 in SWR1 buffer, 37°C, 30 min; trypsin, SEC enrichment, LC-MS/MS, xQuest (CX-MS). The conditions noted are these: both partners purified.
Assay [4] concerns the target T3, Swc3 (S. cerevisiae, UniProt P31376 1-625).
T3 construct: Swc3, C-Module subunit of SWR1, S. cerevisiae; source: endogenous, S. cerevisiae; co-purified in the SWR1 complex
T3 sequence (looked up): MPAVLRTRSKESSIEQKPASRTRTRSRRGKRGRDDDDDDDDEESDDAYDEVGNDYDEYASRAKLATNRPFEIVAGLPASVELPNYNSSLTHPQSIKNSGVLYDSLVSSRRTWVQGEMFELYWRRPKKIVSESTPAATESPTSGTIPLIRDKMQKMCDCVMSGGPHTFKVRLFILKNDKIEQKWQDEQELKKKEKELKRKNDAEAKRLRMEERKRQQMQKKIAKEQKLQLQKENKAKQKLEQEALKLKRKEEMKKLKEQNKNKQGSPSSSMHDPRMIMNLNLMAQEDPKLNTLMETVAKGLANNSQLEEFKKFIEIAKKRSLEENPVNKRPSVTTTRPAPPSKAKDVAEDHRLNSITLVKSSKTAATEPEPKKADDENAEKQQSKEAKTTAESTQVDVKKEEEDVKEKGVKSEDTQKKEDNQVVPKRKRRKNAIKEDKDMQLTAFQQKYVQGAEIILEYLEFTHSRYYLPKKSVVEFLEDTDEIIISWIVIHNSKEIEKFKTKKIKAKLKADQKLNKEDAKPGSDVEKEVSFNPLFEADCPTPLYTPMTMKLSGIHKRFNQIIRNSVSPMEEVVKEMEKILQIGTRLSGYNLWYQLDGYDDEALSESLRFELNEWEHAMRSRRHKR
The assay is described as above. As to conditions: both partners purified.

Consider B1, for which the binding result in assay [1] and in assay [2] was “binds” each time.

B2: Yaf9 (natural protein, S. cerevisiae, UniProt P53930 1-226, looked up)
chain: MAPTISKRIKTLSVSRPIIYGNTAKKMGSVKPPNAPAEHTHLWTIFVRGPQNEDISYFIKKVVFKLHDTYPNPVRSIEAPPFELTETGWGEFDINIKVYFVEEANEKVLNFYHRLRLHPYANPVPNSDNGNEQNTTDHNSKDAEVSSVYFDEIVFNEPNEEFFKILMSRPGNLLPSNKTDDCVYSKQLEQEEIDRIEIGIEKVDKEIDELKQKLENLVKQEAINGS
notes: Yaf9, N-Module subunit of SWR1, S. cerevisiae; source: endogenous, S. cerevisiae; co-purified in the SWR1 complex
Regarding B2, the binding result in assay [3] is “binds”.

B3: Arp4 (natural protein, S. cerevisiae, UniProt P80428 1-489, looked up)
chain: MSNAALQVYGGDEVSAVVIDPGSYTTNIGYSGSDFPQSILPSVYGKYTADEGNKKIFSEQSIGIPRKDYELKPIIENGLVIDWDTAQEQWQWALQNELYLNSNSGIPALLTEPVWNSTENRKKSLEVLLEGMQFEACYLAPTSTCVSFAAGRPNCLVVDIGHDTCSVSPIVDGMTLSKSTRRNFIAGKFINHLIKKALEPKEIIPLFAIKQRKPEFIKKTFDYEVDKSLYDYANNRGFFQECKETLCHICPTKTLEETKTELSSTAKRSIESPWNEEIVFDNETRYGFAEELFLPKEDDIPANWPRSNSGVVKTWRNDYVPLKRTKPSGVNKSDKKVTPTEEKEQEAVSKSTSPAANSADTPNETGKRPLEEEKPPKENNELIGLADLVYSSIMSSDVDLRATLAHNVVLTGGTSSIPGLSDRLMTELNKILPSLKFRILTTGHTIERQYQSWLGGSILTSLGTFHQLWVGKKEYEEVGVERLLNDRFR
notes: Arp4, actin-related protein, N-Module subunit of SWR1, S. cerevisiae; source: endogenous, S. cerevisiae; co-purified in the SWR1 complex
B3: in assay [4], the binding result is listed as “binds”.
